In publication PMC3575693 one finds % IpaB in needles relative to the complemented strain, in the ipaDL99P strain and % IpaB in needles relative to the complemented strain, in the wild-type strain data, which are given here for one substance.

The assay deals with needle protein MxiH (Shigella flexneri) (UniProt P0A223). Kind of assay: co-purification with isolated needles, Western blot.
UniProt P0A223, sequence (P0A223 whole entry): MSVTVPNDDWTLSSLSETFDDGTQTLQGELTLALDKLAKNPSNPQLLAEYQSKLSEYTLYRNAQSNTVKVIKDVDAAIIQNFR

The substance IpaB (natural protein) gave a % IpaB in needles relative to the complemented strain, in the ipaDL99P strain of 100% and a % IpaB in needles relative to the complemented strain, in the wild-type strain of 70%.
